What was measured:
CD40+ CII target cells = assay: Cytotoxicity assay: CII target cells with Vγ9Vδ2-T cells; format: cell-based, human; conditions: overnight with Vγ9Vδ2-T cells, 1:1 ratio; FIG. 11A
Method: CD40^+ CII cells and Vγ9Vδ2-T cells were grown as described in Example 7.
CII target cells were labeled with carboxyfluorescein succinimidyl ester (CFSE; C1157, Thermo Fisher Scientific) and incubated with VHH or medium control for 30 minutes at 37° C. Target cells were then cocultured overnight with Vγ9Vδ2-T cell lines in a 1:1 ratio.
Viability was measured as described in Example 4.

human CD40 = target: T1, human CD40 (human, UniProt P25942 21-277); assay: flow cytometry, CD40-transfected HEK293T cells, VHH 1 µM, Myc-tag detection; controls: cells without VHH and WT HEK293T with and without VHH
T1 construct: In the assays it stood on CD40-transfected HEK293T cells, primary CLL cells or the CLL-derived CII cell line; also called tumor necrosis factor receptor superfamily member 5; TNR5_HUMAN
T1 sequence (P25942 21-277 limits assumed): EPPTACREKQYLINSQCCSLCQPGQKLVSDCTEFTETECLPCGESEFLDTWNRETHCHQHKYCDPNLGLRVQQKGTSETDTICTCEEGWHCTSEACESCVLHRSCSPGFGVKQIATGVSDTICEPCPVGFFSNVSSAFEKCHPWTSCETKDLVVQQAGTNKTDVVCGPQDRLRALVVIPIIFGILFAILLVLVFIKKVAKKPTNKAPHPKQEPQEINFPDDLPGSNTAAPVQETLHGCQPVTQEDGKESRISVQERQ
Method: FIG. 1: Anti-CD40 VHHs bind to CD40-expressing cells. (A) CD40 expression on WT (filled histogram) and CD40-transfected (unfilled histogram) HEK293T cells. (B) CD40-negative WT or CD40-transfected HEK293T cells were incubated with V12t (1 μM), V15t (1 μM), V19t (1 μM) or medium control and the Myc-tag was subsequently detected by flow cytometry. Representative histograms obtained in 3 independent experiments are shown.

binding result (human CD40)	Molecule	lysis of CII target cells (CD40+ CII target cells)
	V12-5C8t: bispecific VHH: anti-CD40 V12 joined to anti-Vδ2-TCR 5C8 by Gly4Ser linker, Myc- and His6-tag, SEQ ID NO:37 (protein, antibody sequence) VHH: QVQLQESGGGLVQAGGSLRLSCAASGLVFKRYSMNWYRQPPGQQRGLVASISDSGVSTNYADSVKGRFTISRDNAKNIGYLQMNSLKPEDTAVYYCNMHTFWGQGTQVTVSSGGGGSEVQLVESGGGLVQAGGSLRLSCAASGRPFSNYAMGWFRQAPGKEREFVAAISWSGGSTSYADSVKGRFTISRDNAKNTVYLQMNSPKPEDTAIYYCAAQFSGADYGFGRLGIRGYEYDYWGQGTQVTVSSGLEGHSDHMEQKLISEEDLNRISDHHHHHH	less potent
binds	V12t (VHH, Llama VHH with C-terminal Myc- and His6-tag; also called monovalent anti-CD40 VHH V12t) VHH: QVQLQESGGGLVQAGGSLRLSCAASGLVFKRYSMNWYRQPPGQQRGLVASISDSGVSTNYADSVKGRFTISRDNAKNIGYLQMNSLKPEDTAVYYCNMHTFWGQGTQVTVSS	
binds	V15t (VHH, Llama VHH with C-terminal Myc- and His6-tag; also called monovalent anti-CD40 VHH V15t) VHH: EVQLQESGGGLVQAGGSLRLSCVTSGSAFSSDTMGWFRQAPGKQRELVASISSRGVREYADSVKGRFTISRDNAKNTVYLQMNSLQPEDTAVYYCNRGALGLPGYRPYNNWGQGTQVTVSS	

From patent US20220135694A1, “NOVEL CD40-BINDING ANTIBODIES” (LAVA THERAPEUTICS B.V., priority 2019, published 2022)
